Target: T1, NGAL rAg H118A displayed on yeast (human, UniProt P80188 21-198)
T1 construct: Yeast display AGA2 fusion as m5
T1 chain: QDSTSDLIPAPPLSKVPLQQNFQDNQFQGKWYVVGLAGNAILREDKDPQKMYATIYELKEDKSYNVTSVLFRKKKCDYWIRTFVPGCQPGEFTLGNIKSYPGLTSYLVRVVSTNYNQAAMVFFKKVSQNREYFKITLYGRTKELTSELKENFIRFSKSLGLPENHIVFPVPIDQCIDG
Test: flow cytometry titration of the mAb on yeast displaying the NGAL antigen, detection with GaM-PE, fractional binding

EC50 (read off the curve): ~0.2 nM
B1: anti-NGAL monoclonal antibody 1-2322-455 (antibody, V domains shown)
VH: EVQLVESGGGLVQPGGSLKLSCAASGFTFNNYYMSWVRQTPERRLEWVAYISSSGGSTYYSDSVRGRFTISRDTARNTLYLQMTSLKSEDTAMYYCARHFGDYSYFDYWGQGTTLTVSS
VL: DIQMTQSPASLSASVGETVTITCRASENFYSYLAWYQQKQGKSPQLLVYNAKTLAEGVPSRFSGSGSGTQFSLKINSLQPEDFGTYYCQHHYDIPLTFGAGTKLELKR

Source: patent publication US20090263894A1 (AbbVie / Abbott, published 2009)
